Experimental data taken from patent US20060239990A1 (published 2006).

Columns and labels:
GST-RB fusion protein [1] = molecular target: T1, GST-RB fusion protein (UniProt P06400 1-928); assay: GST pull-down of S35-labeled in vitro translated protein with GST-RB on glutathione sepharose beads
T1 construct: not shown: glutathione S-transferase tag of the pGEX-6P vector (Amersham/Pharmacia)
T1 sequence (looked up): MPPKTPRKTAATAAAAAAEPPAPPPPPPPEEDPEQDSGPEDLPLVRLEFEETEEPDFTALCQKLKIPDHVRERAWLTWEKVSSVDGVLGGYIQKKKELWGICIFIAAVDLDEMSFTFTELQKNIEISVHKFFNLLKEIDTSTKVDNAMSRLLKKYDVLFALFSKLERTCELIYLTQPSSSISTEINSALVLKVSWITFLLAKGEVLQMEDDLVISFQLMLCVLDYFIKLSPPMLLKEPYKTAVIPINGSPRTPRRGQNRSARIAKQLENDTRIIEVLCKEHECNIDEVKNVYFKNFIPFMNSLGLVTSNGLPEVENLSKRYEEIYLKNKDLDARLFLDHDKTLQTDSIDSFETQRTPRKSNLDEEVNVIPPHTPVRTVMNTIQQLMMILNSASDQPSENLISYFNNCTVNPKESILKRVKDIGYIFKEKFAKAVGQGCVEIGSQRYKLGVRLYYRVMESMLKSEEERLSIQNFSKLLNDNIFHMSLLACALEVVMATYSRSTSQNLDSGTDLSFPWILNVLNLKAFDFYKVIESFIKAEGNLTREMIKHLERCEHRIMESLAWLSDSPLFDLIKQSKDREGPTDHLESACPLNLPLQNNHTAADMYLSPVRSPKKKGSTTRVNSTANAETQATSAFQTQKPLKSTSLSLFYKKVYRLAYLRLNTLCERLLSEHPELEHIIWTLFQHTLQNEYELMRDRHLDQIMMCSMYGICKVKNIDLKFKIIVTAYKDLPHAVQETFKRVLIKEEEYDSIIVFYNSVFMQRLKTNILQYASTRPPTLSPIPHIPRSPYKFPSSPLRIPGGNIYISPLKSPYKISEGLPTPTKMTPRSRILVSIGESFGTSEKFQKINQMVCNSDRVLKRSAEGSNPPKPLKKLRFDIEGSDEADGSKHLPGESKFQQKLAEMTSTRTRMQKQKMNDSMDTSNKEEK
Method: GST-RB and GST were bound to glutathione sepharose beads and incubated with S³⁵-labeled in vitro translated PRMT1, PRMT2, PRMT3, and PRMT4. Co-precipitated labeled PRMTs were analyzed by SDS-PAGE. […] HA-tagged PRMT2 (+) or control vectors (−) were transfected in 293 cells. Cell lysates were immunoprecipitated with rabbit RB antibodies or IgG and followed by Western blot analysis using mouse HA and RB antibodies (upper panel). A Western blot using mouse HA antibodies detects HA-tagged PRMT2 (lower panel).
The crude cell lysate of the GST-fusion proteins was prepared and purified according to the manufacture's protocol (Amersham/Pharmacia). [³⁵S]-methionine-labeled protein was produced by in vitro transcription/translation using the TNT T7-coupled reticulocyte lysate system (Promega). [³⁵S]-methionine-labeled protein and GST-fusion protein bound to glutathione sepharose 4B beads were incubated in 500 μl of HNE buffer (50 mM Hepes, pH 7.8, 150 mM NaCl, 1 mM EDTA, 1 mM DTT, 1% NP40, and 1× protease inhibitor mix (Complete: Roche)) at 4° C. for 1 hour. Beads were washed four times with HNE buffer, and then analyzed on an SDS-PAGE gradient gel (4-15%). […]

GST-RB fusion protein [2] = molecular target: T1, GST-RB fusion protein; assay: GST pull-down of S35-labeled in vitro translated protein with GST-RB

B1: S35-labeled in vitro translated PRMT3 (human) (enzyme, UniProt O60678 2-531, looked up)
chain: CSLASGATGGRGAVENEEDLPELSDSGDEAAWEDEDDADLPHGKQQTPCLFCNRLFTSAEETFSHCKSEHQFNIDSMVHKHGLEFYGYIKLINFIRLKNPTVEYMNSIYNPVPWEKEEYLKPVLEDDLLLQFDVEDLYEPVSVPFSYPNGLSENTSVVEKLKHMEARALSAEAALARAREDLQKMKQFAQDFVMHTDVRTCSSSTSVIADLQEDEDGVYFSSYGHYGIHEEMLKDKIRTESYRDFIYQNPHIFKDKVVLDVGCGTGILSMFAAKAGAKKVLGVDQSEILYQAMDIIRLNKLEDTITLIKGKIEEVHLPVEKVDVIISEWMGYFLLFESMLDSVLYAKNKYLAKGGSVYPDICTISLVAVSDVNKHADRIAFWDDVYGFKMSCMKKAVIPEAVVEVLDPKTLISEPCGIKHIDCHTTSISDLEFSSDFTLKITRTSMCTAIAGYFDIYFEKNCHNRVVFSTGPQSTKTHWKQTVFLLEKPFSVKAGEALKGKVTVHKNKKDPRSLTVTLTLNNSTQTYGLQ
modifications: [35S]-methionine label
- binding result (GST-RB fusion protein [1]): no binding

B2: PRMT2(1-95) (enzyme)
chain: MATSGDCPRSESQGEEPAECSEAGLLQEGVQPEEFVAIADYAATDETQLSFLRGEKILILRQTTADWWWGERAGCCGYIPANHVGKHVDEYDPED
modifications: [35S]-methionine label
- binding result (GST-RB fusion protein [2]): no binding

B3: PRMT2(1-95&219-433) (enzyme)
chain: MATSGDCPRSESQGEEPAECSEAGLLQEGVQPEEFVAIADYAATDETQLSFLRGEKILILRQTTADWWWGERAGCCGYIPANHVGKHVDEYDPEDFEFMIESILYARDAWLKEDGVIWPTMAALHLVPCSADKDYRSKVLFWDNAYEFNLSALKSLAVKEFFSKPKYNHILKPEDCLSEPCTILQLDMRTVQISDLETLRGELRFDIRKAGTLHGFTAWFSVHFQSLQEGQPPQVLSTGPFHPTTHWKQTLFMMDDPVPVHTGDVVTGSVVLQRNPVWRRHMSVALSWAVTSRQDPTSQKVGEKVFPIWR
modifications: [35S]-methionine label in the binding assay
notes: the same deletion was expressed from pVR1012 in the U2OS reporter assay; also called Int-del
- binding result (GST-RB fusion protein [2]): no binding

B4: S35-labeled in vitro translated PRMT4 (CARM1) (human) (enzyme, UniProt Q86X55 2-608, looked up)
chain: AAAAAAVGPGAGGAGSAVPGGAGPCATVSVFPGARLLTIGDANGEIQRHAEQQALRLEVRAGPDSAGIALYSHEDVCVFKCSVSRETECSRVGKQSFIITLGCNSVLIQFATPNDFCSFYNILKTCRGHTLERSVFSERTEESSAVQYFQFYGYLSQQQNMMQDYVRTGTYQRAILQNHTDFKDKIVLDVGCGSGILSFFAAQAGARKIYAVEASTMAQHAEVLVKSNNLTDRIVVIPGKVEEVSLPEQVDIIISEPMGYMLFNERMLESYLHAKKYLKPSGNMFPTIGDVHLAPFTDEQLYMEQFTKANFWYQPSFHGVDLSALRGAAVDEYFRQPVVDTFDIRILMAKSVKYTVNFLEAKEGDLHRIEIPFKFHMLHSGLVHGLAFWFDVAFIGSIMTVWLSTAPTEPLTHWYQVRCLFQSPLFAKAGDTLSGTCLLIANKRQSYDISIVAQVDQTGSKSSNLLDLKNPFFRYTGTTPSPPPGSHYTSPSENMWNTGSTYNLSSGMAVAGMPTAYDLSSVIASGSSVGHNNLIPLANTGIVNHTHSRMGSIMSTGIVQGSSGAQGSGGGSTSAHYAVNSQFTMGGPAISMASPMSIPTNTMHYGS
modifications: [35S]-methionine label
- binding result (GST-RB fusion protein [1]): no binding
